Target: the molecule itself
Test: non-reducing SDS gel electrophoresis (silver stain and western blot); purified GzmA run under non-reducing conditions; homodimer at ~50 kDa and polymers of it

B1: Native human Granzyme A (enzyme, UniProt P12544 29-262, looked up)
chain: IIGGNEVTPHSRPYMVLLSLDRKTICAGALIAKDWVLTAAHCNLNKRSQVILGAHSITREEPTKQIMLVKKEFPYPCYDPATREGDLKLLQLMEKAKINKYVTILHLPKKGDDVKPGTMCQVAGWGRTHNSASWSDTLREVNITIIDRKVCNDRNHYNFNPVIGMNMVCAGSLRGGRDSCNGDSGSPLLCEGVFRGVTSFGLENKCGDPRGPGVYILLSKKHLNWIIMTIKGAV
notes: Granzyme A (GzmA), native human protein, commercially obtained; Some monomer at ~25 kDa is seen beside the homodimer; also called NhGzmA; native GzmA; source: bought: TheraTest (Lombard, IL)
B1: binds.
